Experiment [1] addresses T1, endothelin receptor subtype A (ETA-R) expressed on the surface of Gli-7 glioblastoma cells (human, UniProt P25101 21-427).
T1 construct: whole, on cells; also called ETA-R on Gli-7; ETAR on glioblastoma cells
T1 sequence (looked up): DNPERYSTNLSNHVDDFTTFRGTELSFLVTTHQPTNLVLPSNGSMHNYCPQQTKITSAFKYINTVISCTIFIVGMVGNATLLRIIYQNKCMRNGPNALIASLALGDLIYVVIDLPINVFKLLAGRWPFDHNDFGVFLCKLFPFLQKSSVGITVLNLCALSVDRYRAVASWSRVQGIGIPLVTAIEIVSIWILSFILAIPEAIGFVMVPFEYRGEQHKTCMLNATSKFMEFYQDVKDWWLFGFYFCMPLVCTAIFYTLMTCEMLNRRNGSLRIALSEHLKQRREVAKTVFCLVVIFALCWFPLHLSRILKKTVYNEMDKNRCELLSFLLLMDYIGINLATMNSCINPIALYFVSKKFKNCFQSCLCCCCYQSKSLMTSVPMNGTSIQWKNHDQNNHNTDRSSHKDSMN
In words: flow cytometry on Gli-7 glioblastoma cells.

In experiment [2] the target is T2, endothelin receptor subtype A (ETA-R) expressed on stably transfected CHO cells (CHO-ETAR) (UniProt P25101 21-427, limits assumed).
T2 construct: whole, on cells; also called endothelin type A receptor
T2 sequence (looked up): T1 sequence (looked up)
The experiment in a line: flow cytometry on CHO-ETAR cells, apparent Kd, one-site fit, with or without 100 nM ET1. The protocol:
The fluorescence is quantified by flow cytometry on an FACSCalibur™ (BD Bioscience). A range of concentrations of antibodies lying between, at a maximum, 1 μM and, at a minimum, […] was incubated for 2 hours at 4° C. in the presence or not of 100 nM ET1 (preincubated for 30 minutes at 4° C.). At 90% confluence, the cells are detached in the presence of versene and then aliquoted in tubes (300 μl/300,000 cells) in the presence of a saturation buffer (PBS-SNC 5%-BSA 0.1%) stored at 4° C. After three washes in PBS buffer, 300 μl of secondary antibody labeled with Alexa Fluor™ 488 (AF-488) diluted to 1/400 was added and incubated for 60 minutes at 4° C. (Goat anti-mouse IgG, Invitrogen-ref A10684). For each antibody concentration point, after three washes in PBS, 10,000 cells were counted with flow cytometry.
The data were analysed in the GraphPad Prism software and the curves modelled according to the parameter: a specific binding site. […] The binding of RA63 was therefore not modified in the presence of ET1.

B1: Rendomab-A63 (antibody, mouse IgG2b, V domains shown)
VH: EVQLVESGGGLVQPKGSLKLSCAASGFTFNIYAMNWIRQAPGKGLEWIARIRSKSNNYATYYADSVKDRFTISRDDSQNMVYLQMNNLKTEDTAMYYCVSSYYSGSFFAYWGQGTLVTVSA
VL: DVLMTQTPLSLPVSLGDQASISCRSSQSIVYSNGKIYLEWYLQKPGQSPKLLIYKVSNRFSGVPDRFSGSGSGTDFTLKISRVEAEDLGVYYCFQGSHLPLTFGAGTKLELKR
notes: also called RA63; monoclonal murine antibody from the hybridoma CNCM I-5250
Consider B1, for which the Kd in experiment [1] was around 15 nM; in experiment [2], around 0.5 nM.

Source of the values: patent US20220089755A1 (COMMISSARIAT A L ENERGIE ATOMIQUE ET AUX ENERGIES …, published 2022).
